Measurements taken from the supplement of paper PMC9112550, “Optimization of the antimicrobial peptide Bac7 by deep mutational scanning” (BMC Biology, 2022).

Tested on: Escherichia coli TOP10
Assay: shrunken log2 fold change of peptide-encoding DNA abundance (4.5 h post-induction vs induction); higher = less antimicrobial activity (less host growth inhibition)
Conditions: time post-induction: 4.5 h; library: site-saturation at positions 5, 18, 19, 20
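Further: peptides expressed intracellularly from a pBAD plasmid library in pooled LB shake-flask culture, induced with 0.3% L-arabinose, DNA abundance read by NGS, three biological replicates, DESeq2 with apeglm shrinkage.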

Sequence	shrunken log2 fold change
RRIRIRPPRLPRPRPRPLSVPRP	-0.254
RRIRRRPPRLPRPRPRPGNTPRP	-0.142
RRIRDRPPRLPRPRPRPQEAPRP	-0.0652
RRIRKRPPRLPRPRPRPKGQPRP	0.00959
RRIRMRPPRLPRPRPRPNNGPRP	0.0562
RRIRHRPPRLPRPRPRPLSSPRP	0.0305
RRIRPRPPRLPRPRPRPESTPRP	0.118
RRIRVRPPRLPRPRPRPPSYPRP	0.00807
RRIRCRPPRLPRPRPRPDSCPRP	0.0373
RRIRYRPPRLPRPRPRPYTRPRP	-1.51
RRIRNRPPRLPRPRPRPQPQPRP	-0.0877
RRIRERPPRLPRPRPRPMNDPRP	-0.0199
RRIRQRPPRLPRPRPRPAYCPRP	-0.043
RRIRVRPPRLPRPRPRPWRRPRP	0.208
RRIRQRPPRLPRPRPRPHPLPRP	-0.0478
RRIRNRPPRLPRPRPRPSCMPRP	-0.755
RRIRARPPRLPRPRPRPDLHPRP	0.474
RRIRCRPPRLPRPRPRPMGKPRP	0.0173
RRIRWRPPRLPRPRPRPMCSPRP	0.197
RRIRGRPPRLPRPRPRPATYPRP	0.235
RRIRMRPPRLPRPRPRPGYQPRP	-0.0727
RRIRPRPPRLPRPRPRPTARPRP	0.352
RRIRRRPPRLPRPRPRPYAIPRP	-0.252
RRIRSRPPRLPRPRPRPQTMPRP	-0.35
RRIRWRPPRLPRPRPRPRFNPRP	0.0235

Sequence	shrunken log2 fold change
RRIRKRPPRLPRPRPRPPYWPRP	0.429
RRIRYRPPRLPRPRPRPAQDPRP	0.188
RRIRNRPPRLPRPRPRPPTSPRP	0.298
RRIRSRPPRLPRPRPRPPSLPRP	-0.119
RRIRWRPPRLPRPRPRPMKMPRP	-0.0851
RRIRPRPPRLPRPRPRPYTCPRP	-0.179
RRIRTRPPRLPRPRPRPMMYPRP	-0.00147
RRIRQRPPRLPRPRPRPQCDPRP	-0.146
RRIRCRPPRLPRPRPRPCDKPRP	-0.266
RRIRQRPPRLPRPRPRPEPFPRP	-0.00936
RRIRMRPPRLPRPRPRPPCNPRP	0.0147
RRIRFRPPRLPRPRPRPPYKPRP	-0.279
RRIRVRPPRLPRPRPRPETHPRP	-0.0797
RRIRERPPRLPRPRPRPDQHPRP	-0.165
RRIRNRPPRLPRPRPRPDNMPRP	-0.104
RRIRQRPPRLPRPRPRPYSTPRP	-0.0896
RRIRSRPPRLPRPRPRPHCHPRP	-0.783
RRIRARPPRLPRPRPRPSHIPRP	-0.523
RRIRLRPPRLPRPRPRPPHCPRP	0.177
RRIRERPPRLPRPRPRPATNPRP	-0.386
RRIRHRPPRLPRPRPRPYMSPRP	-0.236
RRIRRRPPRLPRPRPRPCVPPRP	-0.149
RRIRCRPPRLPRPRPRPCACPRP	-0.421
RRIRWRPPRLPRPRPRPCNGPRP	-0.0973
RRIRCRPPRLPRPRPRPFVLPRP	-0.469

Sequence	shrunken log2 fold change
RRIRNRPPRLPRPRPRPHMNPRP	-0.572
RRIRHRPPRLPRPRPRPHCMPRP	-0.0295
RRIRWRPPRLPRPRPRPTGQPRP	-0.0283
RRIRPRPPRLPRPRPRPTGQPRP	0.152
RRIRNRPPRLPRPRPRPPCCPRP	0.123
RRIRHRPPRLPRPRPRPRTIPRP	-0.344
RRIRMRPPRLPRPRPRPDQNPRP	0.405
RRIRSRPPRLPRPRPRPHYWPRP	-0.519
RRIRKRPPRLPRPRPRPACPPRP	0.664
RRIRCRPPRLPRPRPRPIFFPRP	-0.0793
RRIRARPPRLPRPRPRPDHKPRP	-0.312
RRIRTRPPRLPRPRPRPSIEPRP	-0.155
RRIRCRPPRLPRPRPRPQPWPRP	0.125
RRIRARPPRLPRPRPRPGYGPRP	0.277
RRIRERPPRLPRPRPRPPFMPRP	-0.185
RRIRNRPPRLPRPRPRPCVNPRP	-0.282
RRIRLRPPRLPRPRPRPANYPRP	-0.032
RRIRFRPPRLPRPRPRPFDWPRP	0.109
RRIRPRPPRLPRPRPRPWQYPRP	0.0173
RRIRVRPPRLPRPRPRPRKHPRP	0.112
RRIRQRPPRLPRPRPRPFSAPRP	-0.0161
RRIRERPPRLPRPRPRPHKQPRP	-0.0572
RRIRNRPPRLPRPRPRPPIGPRP	0.106
RRIRYRPPRLPRPRPRPQSQPRP	-0.133
RRIRYRPPRLPRPRPRPYIVPRP	-0.496

Sequence	shrunken log2 fold change
RRIRNRPPRLPRPRPRPFKCPRP	-0.0598
RRIRMRPPRLPRPRPRPPSKPRP	0.557
RRIRTRPPRLPRPRPRPQAVPRP	-0.111
RRIRIRPPRLPRPRPRPAPRPRP	0.733
RRIRKRPPRLPRPRPRPPHSPRP	0.509
RRIRYRPPRLPRPRPRPKFPPRP	-1.01
RRIRRRPPRLPRPRPRPAHFPRP	0.0399
RRIRLRPPRLPRPRPRPSIEPRP	-0.602
RRIRRRPPRLPRPRPRPPGMPRP	0.821
RRIRDRPPRLPRPRPRPWQWPRP	-0.0124
RRIRCRPPRLPRPRPRPLVTPRP	-0.195
RRIRGRPPRLPRPRPRPWNDPRP	-0.222
RRIRHRPPRLPRPRPRPVGAPRP	3.01
RRIRHRPPRLPRPRPRPTSDPRP	-0.302
RRIRLRPPRLPRPRPRPKCWPRP	0.323
RRIRSRPPRLPRPRPRPRGWPRP	0.624
RRIRPRPPRLPRPRPRPDEAPRP	-0.152
RRIRRRPPRLPRPRPRPKDEPRP	0.189
RRIRARPPRLPRPRPRPSCSPRP	0.0274
RRIRPRPPRLPRPRPRPPHKPRP	0.452
RRIRIRPPRLPRPRPRPTSVPRP	-0.18
RRIRVRPPRLPRPRPRPDSSPRP	-0.0452
RRIRLRPPRLPRPRPRPLGKPRP	-0.0194
RRIRYRPPRLPRPRPRPISRPRP	-0.113
RRIRLRPPRLPRPRPRPPPMPRP	0.966

Sequence	shrunken log2 fold change
RRIRKRPPRLPRPRPRPEILPRP	0.728
RRIRIRPPRLPRPRPRPLHAPRP	0.00821
RRIRTRPPRLPRPRPRPNGVPRP	-0.0427
RRIRMRPPRLPRPRPRPYTSPRP	-0.265
RRIRWRPPRLPRPRPRPHGPPRP	0.0026
RRIRLRPPRLPRPRPRPSGKPRP	0.19
RRIRPRPPRLPRPRPRPEEKPRP	-0.0155
RRIRRRPPRLPRPRPRPKHEPRP	0.0619
RRIRMRPPRLPRPRPRPSRLPRP	0.19
RRIRPRPPRLPRPRPRPWKCPRP	0.0176
RRIRRRPPRLPRPRPRPGDDPRP	0.362
RRIRWRPPRLPRPRPRPETPPRP	1.33
RRIRARPPRLPRPRPRPCAQPRP	0.483
RRIRRRPPRLPRPRPRPTYTPRP	-0.214
RRIRERPPRLPRPRPRPGSPPRP	-0.0668
RRIRYRPPRLPRPRPRPTKDPRP	-1.04
RRIRTRPPRLPRPRPRPPKEPRP	-0.000639
RRIRWRPPRLPRPRPRPFSSPRP	-0.374
RRIRKRPPRLPRPRPRPSDPPRP	0.0131
RRIRFRPPRLPRPRPRPYFCPRP	-1.05
RRIRQRPPRLPRPRPRPMKTPRP	0.0802
RRIRTRPPRLPRPRPRPHGVPRP	-0.00162
RRIRQRPPRLPRPRPRPTGLPRP	0.0999
RRIRSRPPRLPRPRPRPNHGPRP	-0.4
RRIRSRPPRLPRPRPRPPPVPRP	0.745

Sequence	shrunken log2 fold change
RRIRPRPPRLPRPRPRPTDKPRP	0.0429
RRIRGRPPRLPRPRPRPWKHPRP	-0.161
RRIRSRPPRLPRPRPRPGPRPRP	0.659
RRIRCRPPRLPRPRPRPMVMPRP	0.0583
RRIRRRPPRLPRPRPRPQETPRP	0.00135
RRIRIRPPRLPRPRPRPAKNPRP	2.21
RRIRRRPPRLPRPRPRPVFRPRP	0.226
RRIRGRPPRLPRPRPRPWSHPRP	-0.155
RRIRDRPPRLPRPRPRPNPSPRP	0.13
RRIRMRPPRLPRPRPRPYDGPRP	-0.0589
RRIRNRPPRLPRPRPRPMHCPRP	-0.0148
RRIRFRPPRLPRPRPRPDTMPRP	-0.0817
RRIRGRPPRLPRPRPRPQDWPRP	0.639
RRIRSRPPRLPRPRPRPPKAPRP	-0.259
RRIRRRPPRLPRPRPRPAHSPRP	0.384
RRIRCRPPRLPRPRPRPRHNPRP	-0.374
RRIRGRPPRLPRPRPRPHHYPRP	-0.524
RRIRIRPPRLPRPRPRPVSPPRP	0.188
RRIRERPPRLPRPRPRPYDHPRP	-0.397
RRIRKRPPRLPRPRPRPGVQPRP	0.228
RRIRSRPPRLPRPRPRPWRGPRP	0.59
RRIRFRPPRLPRPRPRPTQNPRP	0.541
RRIRDRPPRLPRPRPRPWWTPRP	-0.327
RRIRARPPRLPRPRPRPHDIPRP	-0.08
RRIRDRPPRLPRPRPRPQTDPRP	-0.0328
